According to PMC7255614, “Strain-specific joint invasion and colonization by Lyme disease spirochetes is promoted by outer surface protein C” (PLoS Pathogens, 2020):

B1: GST-OspC_(B31-ECM)^- (natural protein, B. burgdorferi strain B31-A3, UniProt Q07337 19-210, looked up)
chain: CNNSGKDGNTSANSADESVKGPNLTEISKKITDSNAVLLAVKEVEALLSSIDEIAAKAIGKKIHQNNGLDTENNHNGSLLAGAYAISTLIKQKLDGLMNEGLMEMIDAAMMCSETFTNKLKEKHTDLGKEGVTDADAKEAILKTNGTKTKGAEELGKLFESVEVLSKAAKEMLANSVKELTSPVVAESPKKP
notes: Cloned into pGEX4T2 at BamHI and SalI; also called OspCECM^-; source: E. coli BL21(DE3), purified by glutathione chromatography
B2: GST-OspCB31 (natural protein)
chain: CNNSGKDGNTSANSADESVKGPNLTEISKKITDSNAVLLAVKEVEALLSSIDEIAAKAIGKKIHQNNGLDTENNHNGSLLAGAYAISTLIKQKLDGLKNEGLKEKIDAAKKCSETFTNKLKEKHTDLGKEGVTDADAKEAILKTNGTKTKGAEELGKLFESVEVLSKAAKEMLANSVKELTSPVVAESPKKP
notes: Cloned into pGEX4T2 at BamHI and SalI; also called wild type OspCB31; source: E. coli BL21(DE3), purified by glutathione chromatography
B3: OspCB31, untagged (natural protein, B. burgdorferi strain B31-A3, UniProt Q07337 19-210, looked up)
chain: CNNSGKDGNTSANSADESVKGPNLTEISKKITDSNAVLLAVKEVEALLSSIDEIAAKAIGKKIHQNNGLDTENNHNGSLLAGAYAISTLIKQKLDGLKNEGLKEKIDAAKKCSETFTNKLKEKHTDLGKEGVTDADAKEAILKTNGTKTKGAEELGKLFESVEVLSKAAKEMLANSVKELTSPVVAESPKKP
notes: OspC (outer surface protein C) of B. burgdorferi strain B31-A3, without GST tag; Probably the GST fusion with the tag removed
B4: GST-OspC_(VS461) (natural protein, B. afzelii strain VS461, UniProt Q0SL36 19-212, looked up)
chain: CNNSGKGGDSASTNPADESAKGPNLTEISKKITDSNAFVLAVKEVETLVLSIDELAKKAIGQKIDNNNGLAALNNQNGSLLAGAYAISTLITEKLSKLKNLEELKTEIAKAKKCSEEFTNKLKSGHADLGKQDATDDHAKAAILKTHATTDKGAKEFKDLFESVEGLLKAAQVALTNSVKELTSPVVAESPKKP
notes: Cloned into pGEX4T2 at BamHI and SalI; source: E. coli BL21(DE3), purified by glutathione chromatography
B5: OspC_(VS461), untagged (natural protein, B. afzelii strain VS461, UniProt Q0SL36 19-212, looked up)
chain: CNNSGKGGDSASTNPADESAKGPNLTEISKKITDSNAFVLAVKEVETLVLSIDELAKKAIGQKIDNNNGLAALNNQNGSLLAGAYAISTLITEKLSKLKNLEELKTEIAKAKKCSEEFTNKLKSGHADLGKQDATDDHAKAAILKTHATTDKGAKEFKDLFESVEGLLKAAQVALTNSVKELTSPVVAESPKKP
notes: OspC (outer surface protein C) of B. afzelii strain VS461, without GST tag; Probably the GST fusion with the tag removed

Assays:
fibronectin [1] = target: T1, fibronectin (UniProt P02751 32-2477); assay: ELISA; wells coated with 10 μg/ml purified fibronectin in 0.05 M Na2CO3 pH 9.0; 0.03125-2 μM GST or GST-tagged OspC variants, 1 hr at ambient temperature; goat anti-GST and HRP-conjugated anti-goat IgG; estimated KD from a fit of OD405; details: both partners purified
fibronectin [2] = target: T1, fibronectin; assay: SPR; Biacore 3000; fibronectin on a CM5 chip; 0-500 nM untagged OspC variants injected at 10 μl/min, 25°C; 1:1 Langmuir model; KD from the average koff divided by kon of each run; details: both partners purified

T1 sequence (P02751 32-2477): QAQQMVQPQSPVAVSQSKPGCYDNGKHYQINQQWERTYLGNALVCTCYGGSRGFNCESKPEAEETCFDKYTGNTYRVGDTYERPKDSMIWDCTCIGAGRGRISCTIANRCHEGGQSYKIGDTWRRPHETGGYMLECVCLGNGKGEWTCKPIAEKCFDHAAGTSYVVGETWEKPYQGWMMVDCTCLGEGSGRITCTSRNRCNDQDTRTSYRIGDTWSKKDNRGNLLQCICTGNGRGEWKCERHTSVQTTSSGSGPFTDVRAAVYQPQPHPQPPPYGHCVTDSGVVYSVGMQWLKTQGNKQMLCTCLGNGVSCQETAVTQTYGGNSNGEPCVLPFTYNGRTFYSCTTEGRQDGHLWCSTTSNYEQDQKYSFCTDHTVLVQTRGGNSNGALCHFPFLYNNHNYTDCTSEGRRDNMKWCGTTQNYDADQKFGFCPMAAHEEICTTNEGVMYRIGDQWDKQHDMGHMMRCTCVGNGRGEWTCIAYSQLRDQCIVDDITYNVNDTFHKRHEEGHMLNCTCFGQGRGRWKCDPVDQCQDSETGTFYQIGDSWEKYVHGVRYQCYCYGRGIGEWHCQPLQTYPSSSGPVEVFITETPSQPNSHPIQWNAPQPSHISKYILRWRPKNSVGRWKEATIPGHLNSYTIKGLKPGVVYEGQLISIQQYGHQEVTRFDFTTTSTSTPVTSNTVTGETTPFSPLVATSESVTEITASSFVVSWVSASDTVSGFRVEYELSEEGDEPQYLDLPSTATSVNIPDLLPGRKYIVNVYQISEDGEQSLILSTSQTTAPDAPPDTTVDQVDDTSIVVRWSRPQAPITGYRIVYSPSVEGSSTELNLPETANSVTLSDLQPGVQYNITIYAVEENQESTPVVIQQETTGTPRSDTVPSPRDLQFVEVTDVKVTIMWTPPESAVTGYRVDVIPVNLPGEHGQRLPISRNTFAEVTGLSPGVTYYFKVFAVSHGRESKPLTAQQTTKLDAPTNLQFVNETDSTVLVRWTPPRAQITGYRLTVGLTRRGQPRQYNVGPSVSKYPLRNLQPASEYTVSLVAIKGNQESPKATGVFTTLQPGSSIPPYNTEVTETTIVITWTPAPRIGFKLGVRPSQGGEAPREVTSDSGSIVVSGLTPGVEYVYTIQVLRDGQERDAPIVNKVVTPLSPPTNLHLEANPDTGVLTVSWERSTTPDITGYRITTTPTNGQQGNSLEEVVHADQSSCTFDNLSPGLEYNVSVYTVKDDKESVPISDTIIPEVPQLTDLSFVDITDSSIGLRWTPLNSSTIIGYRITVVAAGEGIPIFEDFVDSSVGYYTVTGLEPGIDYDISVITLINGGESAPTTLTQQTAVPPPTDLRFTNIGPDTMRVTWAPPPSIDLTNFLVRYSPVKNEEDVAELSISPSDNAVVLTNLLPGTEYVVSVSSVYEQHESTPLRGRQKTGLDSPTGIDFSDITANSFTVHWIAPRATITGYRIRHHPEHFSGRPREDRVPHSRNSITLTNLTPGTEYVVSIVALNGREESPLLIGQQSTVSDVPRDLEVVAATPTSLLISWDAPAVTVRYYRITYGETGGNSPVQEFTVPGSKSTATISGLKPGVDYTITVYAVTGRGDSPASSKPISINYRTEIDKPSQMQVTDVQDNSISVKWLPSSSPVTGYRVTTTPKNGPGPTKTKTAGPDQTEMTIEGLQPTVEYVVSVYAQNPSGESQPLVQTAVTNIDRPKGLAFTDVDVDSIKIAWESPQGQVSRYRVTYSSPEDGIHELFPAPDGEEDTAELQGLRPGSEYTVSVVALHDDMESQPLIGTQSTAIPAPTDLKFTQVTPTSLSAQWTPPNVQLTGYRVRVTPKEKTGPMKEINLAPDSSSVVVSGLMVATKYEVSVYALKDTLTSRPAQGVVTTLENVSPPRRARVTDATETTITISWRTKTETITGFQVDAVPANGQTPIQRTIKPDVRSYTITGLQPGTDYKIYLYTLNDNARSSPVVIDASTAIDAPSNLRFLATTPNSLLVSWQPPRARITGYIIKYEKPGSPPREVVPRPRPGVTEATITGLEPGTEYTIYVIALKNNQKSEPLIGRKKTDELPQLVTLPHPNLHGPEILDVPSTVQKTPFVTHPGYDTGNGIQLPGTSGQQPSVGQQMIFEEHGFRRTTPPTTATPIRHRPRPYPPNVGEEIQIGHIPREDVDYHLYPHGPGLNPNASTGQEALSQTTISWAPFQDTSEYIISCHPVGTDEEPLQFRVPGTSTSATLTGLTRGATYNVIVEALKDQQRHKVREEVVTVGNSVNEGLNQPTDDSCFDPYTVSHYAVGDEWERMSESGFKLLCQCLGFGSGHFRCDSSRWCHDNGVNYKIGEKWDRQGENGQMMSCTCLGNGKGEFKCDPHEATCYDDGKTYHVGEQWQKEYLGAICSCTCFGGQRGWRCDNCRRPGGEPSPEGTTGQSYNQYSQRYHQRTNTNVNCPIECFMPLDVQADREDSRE

Row | Binder | Kd (fibronectin [1]) [nM] | Kd (fibronectin [2]) [nM] | koff (fibronectin [2]) [s⁻¹] | kon (fibronectin [2]) [M⁻¹ s⁻¹]
1 | B1 | 2140 |  |  | 
2 | B2 | 3460 |  |  | 
3 | B3 |  | 9210 | 0.13 | 19900
4 | B4 | 520 |  |  | 
5 | B5 |  | 800 | 0.09 | 151000
